Assay results taken from doi:10.1101/2021.04.16.440108 (bioRxiv, 2021).

B1: Transgelin 3 (TAGLN3) (natural protein, human, UniProt Q9UI15 1-199, looked up)
chain: MANRGPSYGLSREVQEKIEQKYDADLENKLVDWIILQCAEDIEHPPPGRAHFQKWLMDGTVLCKLINSLYPPGQEPIPKISESKMAFKQMEQISQFLKAAETYGVRTTDIFQTVDLWEGKDMAAVQRTLMALGSVAVTKDDGCYRGEPSWFHRKAQQNRRGFSEEQLRQGQNVIGLQMGSNKGASQAGMTGYGMPRQIM
B2: IκBα (natural protein, UniProt P25963 1-317, looked up)
chain: MFQAAERPQEWAMEGPRDGLKKERLLDDRHDSGLDSMKDEEYEQMVKELQEIRLEPQEVPRGSEPWKQQLTEDGDSFLHLAIIHEEKALTMEVIRQVKGDLAFLNFQNNLQQTPLHLAVITNQPEIAEALLGAGCDPELRDFRGNTPLHLACEQGCLASVGVLTQSCTTPHLHSILKATNYNGHTCLHLASIHGYLGIVELLVSLGADVNAQEPCNGRTALHLAVDLQNPDLVSLLLKCGADVNRVTYQGYSPYQLTWGRPSTRIQQQLGQLTLENLQMLPESEDEESYDTESEFTEFTEDELPYDDCVFGGQRLTL

What was measured:
IκBα = target: B2; assay: nanoDSF
Transgelin 3 (TAGLN3) = target: B1; assay: nanoDSF

| Binder | Kd (IκBα) | Tm of TAGLN3 with 6-fold excess of IκBα (free TAGLN3: 56.8°C) (Transgelin 3 (TAGLN3)) |
| --- | --- | --- |
| B1 | 10 µM |  |
| B2 |  | 61 °C |
